Assay results reported in PMC3799227.

Assays:
[1] = test system: BaeR (Salmonella enterica serovar Typhimurium); experiment: EMSA
[2] = test system: BaeR-P (phosphorylated BaeR) (Salmonella enterica serovar Typhimurium); experiment: EMSA

sodA promoter fragment A (wild type)
binding [1]: 0.9 µM
binding [2]: 0.6 µM
